Laboratory results published in PMC10539383, “Recognition and cleavage mechanism of intron-containing pre-tRNA by human TSEN endonuclease complex”.

Molecular target: T1, TSEN2;TSEN34;TSEN15;TSEN54 (Homo sapiens;Homo sapiens;Homo …, UniProt Q8NCE0;Q9BSV6;Q8WW01;Q7Z6J9 1-465;1-310;1-171;1-526, |||)
T1 sequence 1: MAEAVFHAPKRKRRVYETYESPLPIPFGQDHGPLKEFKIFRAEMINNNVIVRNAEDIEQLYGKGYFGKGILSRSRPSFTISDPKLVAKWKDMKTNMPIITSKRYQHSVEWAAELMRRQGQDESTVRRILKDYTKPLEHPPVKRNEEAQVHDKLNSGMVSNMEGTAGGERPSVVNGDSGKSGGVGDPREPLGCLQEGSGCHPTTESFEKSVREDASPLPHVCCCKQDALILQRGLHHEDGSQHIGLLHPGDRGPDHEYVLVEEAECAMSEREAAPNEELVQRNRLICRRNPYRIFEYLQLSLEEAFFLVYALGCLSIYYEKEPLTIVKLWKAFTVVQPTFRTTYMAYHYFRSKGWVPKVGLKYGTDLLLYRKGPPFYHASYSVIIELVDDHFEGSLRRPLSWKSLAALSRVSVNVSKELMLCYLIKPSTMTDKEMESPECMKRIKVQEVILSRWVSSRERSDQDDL
T1 sequence 2: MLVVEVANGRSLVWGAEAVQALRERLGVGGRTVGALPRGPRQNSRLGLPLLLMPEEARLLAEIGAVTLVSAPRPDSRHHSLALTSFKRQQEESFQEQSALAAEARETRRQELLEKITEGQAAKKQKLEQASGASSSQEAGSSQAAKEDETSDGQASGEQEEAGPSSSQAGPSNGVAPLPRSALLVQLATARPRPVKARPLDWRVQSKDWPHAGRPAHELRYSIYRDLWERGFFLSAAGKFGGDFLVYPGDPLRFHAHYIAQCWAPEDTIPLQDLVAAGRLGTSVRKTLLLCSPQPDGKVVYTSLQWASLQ
T1 sequence 3: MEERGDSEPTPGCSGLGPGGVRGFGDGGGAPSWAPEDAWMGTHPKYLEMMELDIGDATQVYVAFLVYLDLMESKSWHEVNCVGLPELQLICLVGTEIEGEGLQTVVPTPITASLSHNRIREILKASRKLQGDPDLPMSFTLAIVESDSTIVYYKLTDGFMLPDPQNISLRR
T1 sequence 4: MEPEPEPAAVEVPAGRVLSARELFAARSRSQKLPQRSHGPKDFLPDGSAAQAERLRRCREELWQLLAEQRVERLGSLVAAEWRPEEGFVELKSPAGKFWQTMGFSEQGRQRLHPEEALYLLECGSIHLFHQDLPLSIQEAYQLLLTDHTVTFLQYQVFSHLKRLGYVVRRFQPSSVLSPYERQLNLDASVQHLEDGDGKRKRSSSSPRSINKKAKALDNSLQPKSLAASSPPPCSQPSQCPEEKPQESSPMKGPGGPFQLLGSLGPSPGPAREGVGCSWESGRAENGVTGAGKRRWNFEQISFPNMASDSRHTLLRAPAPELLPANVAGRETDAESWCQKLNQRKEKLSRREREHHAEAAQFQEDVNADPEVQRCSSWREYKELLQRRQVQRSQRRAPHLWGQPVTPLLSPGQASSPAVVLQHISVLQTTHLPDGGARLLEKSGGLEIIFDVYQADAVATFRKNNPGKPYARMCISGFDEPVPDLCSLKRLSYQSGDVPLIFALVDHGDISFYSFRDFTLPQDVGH
Assay: cryo-EM structure (3.2 A); wild-type active complex; Protein (EM) buffer: 20 mM HEPES pH 8.0, 150 mM NaCl, 1 mM MgCl2, 5 mM DTT; complex formation conditions and temperature not in the material
Settings: protein: recombinant;recombinant;recombinant;recombinant; tags: none stated;none stated;N-terminal 6xHis;N-terminal GST removed by TEV; copies: 1;1;1;1; pre-tRNA fold, single strand with anticodon-intron stem and 3' bulge

B1: pre-tRNAArgTCT (structured_RNA)
RNA: GGGGGCUCUGUGGCGCAAUGGAUAGCGCAUUGGACUUCUAGUGACGAAUAGAGCAAUUCAAAGGUUGUGGGUUCGAAUCCCACCAGAGUCG
  binding result: binds
